Data published in patent US20240317847A1 (Bayer, published 2024).

T1: cynomolgus IL-11 (cynomolgus, UniProt P20808 22-199)
T1 construct: Invigate, lot #C290621-19; also called cIL11; cynoL-11
T1 sequence: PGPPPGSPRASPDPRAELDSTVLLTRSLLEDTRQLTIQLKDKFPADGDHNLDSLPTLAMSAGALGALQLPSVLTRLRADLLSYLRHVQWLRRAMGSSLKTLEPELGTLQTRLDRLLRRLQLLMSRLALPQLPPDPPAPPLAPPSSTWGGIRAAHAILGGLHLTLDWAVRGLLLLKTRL

T2: human IL-11 (human, UniProt P20809 22-199)
T2 construct: Invigate, e.g. lot #C121021-19; biotinylated where coated in the ELISA; also called hIL-11; hIL11
T2 sequence: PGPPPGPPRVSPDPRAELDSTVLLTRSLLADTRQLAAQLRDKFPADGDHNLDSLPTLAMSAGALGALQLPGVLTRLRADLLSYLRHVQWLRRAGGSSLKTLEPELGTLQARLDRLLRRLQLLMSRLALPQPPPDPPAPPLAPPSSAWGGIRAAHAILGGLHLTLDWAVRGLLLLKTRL

T3: murine IL-11 (mouse, UniProt P47873 22-199)
T3 construct: Invigate, e.g. lot #C210819-09; biotinylated where coated in the ELISA; also called mIL-11; mIL11
T3 sequence: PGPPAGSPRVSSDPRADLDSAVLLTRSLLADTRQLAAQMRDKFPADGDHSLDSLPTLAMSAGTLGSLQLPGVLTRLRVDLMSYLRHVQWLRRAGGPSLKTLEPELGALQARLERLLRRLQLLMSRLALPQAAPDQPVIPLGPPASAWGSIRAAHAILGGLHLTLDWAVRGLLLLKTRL

T4: rat IL-11 (rat, UniProt Q99MF5 22-199)
T4 construct: Invigate, e.g. lot #C301019-19; also called rIL11
T4 sequence: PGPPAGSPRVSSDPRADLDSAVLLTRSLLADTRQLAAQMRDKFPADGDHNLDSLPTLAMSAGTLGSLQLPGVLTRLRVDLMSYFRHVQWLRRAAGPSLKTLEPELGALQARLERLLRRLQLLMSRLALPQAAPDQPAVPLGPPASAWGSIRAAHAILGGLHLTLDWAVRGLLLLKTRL


Assays:
[1] = target: T1, cynomolgus IL-11; experiment: SPR 37 C, antibody captured, IL-11 as analyte
Method: (§1) To assess the binding kinetics and affinity of anti-IL-11 antibodies as well as their species cross-reactivity profile, binding assays were conducted using surface plasmon resonance (SPR). Binding assays were performed on a Biacore T200 instrument or on a Biacore 8K+ instrument (Cytiva) at 37° C. using assay buffer HBS EP+, 300 mM NaCl, 1 mg/ml BSA, 0.05% NaN3. Antibodies were captured either via anti-human Fc IgGs (“Human antibody capture kit”, Order No. BR100839, Cytiva) or via anti-mouse Fc IgGs (“Mouse antibody capture kit, Order No. BR100383, Cytiva) covalently amine coupled to a Series S CM5 sensor chip (Cytiva) depending on the isotype. The amine coupling was carried out according to the manufacturer's instructions using 1-ethyl-3-(3-dimethylaminopropyl) carbodiimide hydrochloride (EDC), N-hydroxysuccinimide (NHS) and ethanolamine HCl, pH 8.5 (“Amine Coupling Kit” BR-1000-50, Cytiva.). Human, mouse, cynomolgus or rat IL-11 was used as analyte at several dilutions within the concentration range from 0.05-200 nM. For binding assays with only one concentration 200 nM IL-11 was used. The sensor surface was regenerated with glycine pH 1.7 after each antigen injection. Obtained sensorgrams were double referenced (subtraction of reference flow cell signal and buffer injection) and were fitted to a 1:1 Langmuir binding model to derive kinetic data using the Biacore T200 Evaluation software or the Biacore Insight software. If no value is reported, there was either no binding or very low binding and multiphasic binding behavior. Values below 1E-12 were considered to be below the dynamic range of the instrument and set to <1E-12.

[2] = target: T2, human IL-11; experiment: SPR 37 C, antibody captured, IL-11 as analyte
Method: as §1

[3] = target: T3, murine IL-11; experiment: SPR 37 C, antibody captured, IL-11 as analyte
Method: as §1

[4] = target: T4, rat IL-11; experiment: SPR 37 C, antibody captured, IL-11 as analyte
Method: as §1

[5] = target: T1, cynomolgus IL-11; experiment: cell-based or functional assay
[6] = target: T2, human IL-11; experiment: cell-based or functional assay
[7] = target: T3, murine IL-11; experiment: cell-based or functional assay
[8] = target: T4, rat IL-11; experiment: cell-based or functional assay
[9] = target: T2, human IL-11; experiment: Di-complex ELISA, competitor canine IL11RA-Fc on coated IL-11;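 for Efficacy (%): signal drop relative to signal at lowest antibody concentration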
Method: (§2) The assay is performed using streptavidin coated microtiter plates (Greiner bio-one, #781997). In a first step, 10 nM biotinylated mouse IL-11 (Invigate, Germany, e.g., lot #C210819-09) or human IL-11 (Invigate, Germany, e.g., lot #C121021-19) is coated in 25 μl PBS on the plate at 4° C. overnight. Next day, the plate is washed three times with 50 μl PBST and then blocked with 50 μl SmartBlock (Candor, #113125) for one hour at room temperature (RT). After additional three washes with PBST, 25 μl of a mixture of the murine anti IL-11 antibody and recombinant canine IL11RA-Fc fusion protein (Sino Biological, #70078-D02H) in PBS-T, 10% Smartblock are added simultaneously to the plate and incubated for one hour at RT. […] After three additional washes with PBS-T, 25 μl anti-human-POD (Sigma, #A0170) in PBS-T, 10% Smartblock is added and incubated for 1 hour at RT. After a final three washes with PBS-T, 25 μl AmplexRed (Fisher Scientific, A12222), 1/1000 in PBS, 0,003% H₂O₂, is added as substrate and incubated for 15 min at RT in the dark. Then, the fluorescence is measured with a plate reader at 535/595 nm. Signals from dose responses were used to calculate IC50 values (GraphPad Prism). Efficacy was calculated as [(signal measured at lowest antibody concentration−signal measured at the highest antibody concentration)×100] divided by (signal measured at lowest antibody concentration−signal measured in the absence of IL11Ra).
(§3) IgG converted antibodies were subjected to the experimental assay procedure described in Example 18.

[10] = target: T3, murine IL-11; experiment: as above
Method: as §2, §3

| Kd [1] | Kd [2] | Kd [3] | Kd [4] | RGA Efficacy (%) [5] | RGA IC50 [5] | RGA Efficacy (%) [6] | RGA IC50 [6] | RGA Efficacy (%) [7] | RGA IC50 [7] | RGA Efficacy (%) [8] | RGA IC50 [8] | Efficacy (%) [9] | Efficacy (%) [10] | IC50 [10] | Binder |
| --- | --- | --- | --- | --- | --- | --- | --- | --- | --- | --- | --- | --- | --- | --- | --- |
| 1.1 nM | 0.0026 nM | 0.004 nM | 0.02 nM | 97.2% | 0.68 nM | 100% | 1.6 nM | 101% | 1.4 nM | 101% | 1.4 nM | 2% | 4.8% | – | TPP-29523 (antibody, mouse IgG1, mIgG1, Lambda) heavy: QVQLVESGGGVVQPGRSLRLSCAASGFTFSHYDMHWVRQAPGKGLEWVAVISYEGSVKFYADSVKGRFTISRDNSKNTLYLQMNSLRAEDTAVYYCARTPGFHFDYWGQGTLVTVSSAKTTPPSVYPLAPGSAAQTNSMVTLGCLVKGYFPEPVTVTWNSGSLSSGVHTFPAVLQSDLYTLSSSVTVPSSTWPSETVTCNVAHPASSTKVDKKIVPRDCGCKPCICTVPEVSSVFIFPPKPKDVLTITLTPKVTCVVVDISKDDPEVQFSWFVDDVEVHTAQTQPREEQFNSTFRSVSELPIMHQDWLNGKEFKCRVNSAAFPAPIEKTISKTKGRPKAPQVYTIPPPKEQMAKDKVSLTCMITDFFPEDITVEWQWNGQPAENYKNTQPIMDTDGSYFVYSKLNVQKSNWEAGNTFTCSVLHEGLHNHHTEKSLSHSPGK light: QSVLTQPPSASGTPGQRVTISCSGSSSNIGSNYVNWYQQLPGTAPKLLIYYDDLRPSGVPDRFSGSKSGTSASLAISGLRSEDEADYYCSAWDDSLSGVVFGGGTKLTVLGQPKSSPSVTLFPPSSEELETNKATLVCTITDFYPGVVTVDWKVDGTPVTQGMETTQPSKQSNNKYMASSYLTLTARAWERHSSYSCQVTHEGHTVEKSLSRADCS |
| 0.61 nM | 0.01 nM | 0.0035 nM | 0.023 nM | 99.2% | 0.89 nM | 100% | 1.8 nM | 101% | 1.2 nM | 99.7% | 1 nM | 6.8% | 12.8% | – | TPP-29519 (antibody, mouse IgG1, mIgG1, Lambda) heavy: QVQLVESGGGVVQPGRSLRLSCAASGFTFSHYDMHWVRQAPGKGLEWVAVISYHGSVKFYADSVKGRFTISRDNSKNTLYLQMNSLRAEDTAVYYCARTPGFHFDYWGQGTLVTVSSAKTTPPSVYPLAPGSAAQTNSMVTLGCLVKGYFPEPVTVTWNSGSLSSGVHTFPAVLQSDLYTLSSSVTVPSSTWPSETVTCNVAHPASSTKVDKKIVPRDCGCKPCICTVPEVSSVFIFPPKPKDVLTITLTPKVTCVVVDISKDDPEVQFSWFVDDVEVHTAQTQPREEQFNSTFRSVSELPIMHQDWLNGKEFKCRVNSAAFPAPIEKTISKTKGRPKAPQVYTIPPPKEQMAKDKVSLTCMITDFFPEDITVEWQWNGQPAENYKNTQPIMDTDGSYFVYSKLNVQKSNWEAGNTFTCSVLHEGLHNHHTEKSLSHSPGK light: QSVLTQPPSASGTPGQRVTISCSGSSSNIGSNYVSWYQQLPGTAPKLLIYYDDLRPSGVPDRFSGSKSGTSASLAISGLRSEDEADYYCSAWDDSLSGVVFGGGTKLTVLGQPKSSPSVTLFPPSSEELETNKATLVCTITDFYPGVVTVDWKVDGTPVTQGMETTQPSKQSNNKYMASSYLTLTARAWERHSSYSCQVTHEGHTVEKSLSRADCS |
| 0.2 nM | 0.34 nM | 0.23 nM | 0.33 nM | 87.8% | 0.44 nM | 81.2% | – | 96.9% | 0.89 nM | 89.9% | 1.8 nM | 36.3% | 43.4% | 2.6 nM | TPP-29528 (antibody, mouse IgG1, mIgG1, Lambda) heavy: EVQLLESGGGLVQPGGSLRLSCAASGFTFSSYGMHWVRQAPGKGLEWVAVISYDGSYKYYADSVKGRFTISRDNSKNTLYLQMNSLRAEDTAVYYCAAGVPDYWGQGTLVTVSSAKTTPPSVYPLAPGSAAQTNSMVTLGCLVKGYFPEPVTVTWNSGSLSSGVHTFPAVLQSDLYTLSSSVTVPSSTWPSETVTCNVAHPASSTKVDKKIVPRDCGCKPCICTVPEVSSVFIFPPKPKDVLTITLTPKVTCVVVDISKDDPEVQFSWFVDDVEVHTAQTQPREEQFNSTFRSVSELPIMHQDWLNGKEFKCRVNSAAFPAPIEKTISKTKGRPKAPQVYTIPPPKEQMAKDKVSLTCMITDFFPEDITVEWQWNGQPAENYKNTQPIMDTDGSYFVYSKLNVQKSNWEAGNTFTCSVLHEGLHNHHTEKSLSHSPGK light: QSVLTQPPSASGTPGQRVTISCSGSSSNIGSDYDVHWYQQLPGTAPKLLIYSNEERPSGVPDRFSGSKSGTSASLAISGLRSEDEADYYCSAWDSSLSGPVFGGGTKLTVLGQPKSSPSVTLFPPSSEELETNKATLVCTITDFYPGVVTVDWKVDGTPVTQGMETTQPSKQSNNKYMASSYLTLTARAWERHSSYSCQVTHEGHTVEKSLSRADCS |
